Test results: patent publication US20190336589A1, “IMMUNIZING PEPTIDE, METHOD FOR PRODUCING IMMUNIZING PEPTIDE, PHARMACEUTICAL COMPOSITION FOR IMMUNE DISEASE CONTAINING SAME, AND METHOD FOR TREATING IMMUNE DISEASE” (OSAKA UNIVERSITY, priority 2015, published 2019)

Legend:
[1] = molecular target: T1, 3A9 TCR / complex of HEL antigen and I-A^k on LK35.2 cells (Mus musculus, UniProt P01910+P06343); assay: Inhibition of TCR recognition by antibody: binding of soluble single-chain 3A9 TCR to antigen-pulsed LK35.2 cells after reaction with serum; conditions: cells reacted with serums of HEL-immunized mice, diluted 10-fold
T1 construct: LK35.2 cells expressing I-A^k (the MHC class II molecule); endogenous in cells; host or cells: LK35.2 cells (I-A^k); the 3A9 scTCR-Fc is culture supernatant of transfected 293T cells
From the text: From 3A9 T cell hybridomas (obtained from Laboratory of Vaccine Materials, National Institutes of Biomedical Innovation) expressing a TCR that recognizes a complex of a peptide consisting of the amino acid sequence of SEQ ID NO: 1 (the T-cell epitope) and I-A^k (the MHC class II molecule), the TCR was cloned. Specifically, from cDNA derived from the 3A9 T cell hybridomas, a polynucleotide encoding the following α-chain and β-chain of 3A9 TCR linked by a GGGGS linker was cloned into a pME18S vector. Thus, a 3A9 TCR expression vector was produced. The vector was designed so that the Fc domain of human IgG is added to the C terminus of an expressed protein. Thus, by introducing the expression vector to a host, a soluble single-chain TCR composed of 3A9 TCR and Fc bound thereto is expressed (3A9 scTCR-Fc).
Next, the 293 T cells were cultured for 96 hours under the same 30 culture conditions as in the item (1) in Example 1A, except that the 3A9 TCR expression vector was introduced instead of the I-A^k c expression vector and the I-A^k f expression vector. After the culture, the supernatant was collected, and the collected supernatant was used as the soluble single-chain TCR.
LK35.2 cells expressing I-A^k (the MHC class II molecule) were seeded in a 24-well plate at a density of 1×10^5 cells/1 ml/well. Next, the HEL protein was added to the wells at a concentration of 200 μg/ml, or the HEL peptide 41-70 or the HEL peptide 48-61 was added to the wells at a concentration of 20 μmol/l. The LK35.2 cells were pulsed with the HEL protein or the HEL peptide by culturing the HEL protein-added group for another 48 hours and the HEL peptide added groups for another 24 hours under the above-described culture conditions. The cultured LK35.2 cells were collected from the wells. Thereafter, the collected LK35.2 cells were used in inhibition of TCR recognition by an antibody to be described below.
Serum collected from each of the HEL protein-immunized mice was diluted 10-fold with HBSS to obtain a diluted serum. Next, 10 μl of the diluted serum was added to the LK35.2 cells obtained in the above item (2) to cause a reaction. Further, a dimer of 20 μl of the supernatant obtained in the above item (1) and 10 μl of an APC-labeled anti-human IgG Fc antibody (code number: 109-136-098, Jackson ImmunoResearch) diluted 100-fold was formed beforehand, and the LK35.2 cells after the reaction were reacted with the dimer. Then, the LK35.2 cells were analyzed by flow cytometry. As Control 1, the flow cytometry analysis was performed in the same manner, except that serums collected from non-immunized mice were used instead of the serums of the HEL protein-immunized mice. […]

[2] = molecular target: T2, complex of HEL peptide and MHC class II molecule (I-A^k) on LK35.2 cells (Mus musculus, UniProt P01910+P06343); assay: Immunization of mice with HEL peptides; serum IgG1 binding to HEL peptide-pulsed LK35.2 cells (flow cytometry); type: in vivo, mice (B10.A strain); conditions: 30 nmol peptide with CFA subcutaneously; serum two weeks after administration
T2 construct: LK35.2 cells expressing I-A^k (the MHC class II molecule); endogenous in cells; host or cells: LK35.2 cells
Procedure: (§1) 30 nmol of the HEL peptide 41-70 or the HEL peptide 48-61 was mixed with a complete Freund's adjuvant. Each of the thus-obtained mixture was administered subcutaneously to mice (B10.A strain). Two weeks after the administration, whole blood was collected from each mouse, and serum was collected from the whole blood.
LK35.2 cells were pulsed with the HEL peptide in the same manner as in the item (2) in Example 1B, except that the HEL peptide 41-70 or the HEL peptide 48-61 was added instead of the HEL protein, the HEL peptide 41-70, and the HEL peptide 48-61. The cultured LK35.2 cells were collected from the wells. Thereafter, the collected LK35.2 cells were used in antibody detection to be described below.
Flow cytometry analysis was performed in the same manner as in the item (3) in Example 1A, except that the LK35.2 cells in the item (2) in Example 2A were used instead of the 293 T cells and that an Alexa®647-labeled anti-mouse IgG1 antibody (catalog number: A21240, Invitrogen) was used instead of the APC-labeled anti-mouse IgG (H+L) antibody (peptide added groups). As Control 1, the flow cytometry analysis was performed in the same manner, except that serums collected from non-immunized mice were used instead of the serums of the HEL peptide-immunized mice. As Control 2, the flow cytometry analysis was performed in the same manner, except that the HEL peptide was not added (peptide non-added groups).

[3] = molecular target: T1, 3A9 TCR / complex of HEL antigen and I-A^k on LK35.2 cells; assay: Immunization of mice with HEL protein or HEL peptides; serum inhibition of soluble single-chain 3A9 TCR binding to HEL protein-pulsed LK35.2 cells; type: in vivo, mice (B10.A strain); conditions: immunogen with CFA subcutaneously; serum two weeks after administration
Procedure: as §1
LK35.2 cells were pulsed with the HEL protein in the same manner as in the item (2) in Example 1B, except that the HEL protein was added instead of the HEL protein, the HEL peptide 41-70, and the HEL peptide 48-61. The cultured LK35.2 cells were collected from the wells. Thereafter, the collected LK35.2 cells were used in inhibition of TCR recognition by an antibody to be described below.
Flow cytometry analysis was performed in the same manner as in the item (3) in Example 1B, except that serums of the HEL peptide 41-70-immunized mice or serums of the HEL peptide 48-61-immunized mice were used in addition to the serums of the HEL protein-immunized mice and that the LK35.2 cells obtained in the item (1) in Example 2B were used instead of the LK35.2 cells obtained in the item (2) in Example 1B. As Control 1, the flow cytometry analysis was performed in the same manner, except that serums collected from non-immunized mice were used instead of the serums of the HEL protein-immunized mice, the serums of the HEL peptide 41-70-immunized mice, and the serums of the HEL peptide 48-61-immunized mice. As Control 2, the flow cytometry analysis was performed in the same manner, except that the HEL protein was not added.
30 nmol of the HEL peptide 48-77 (Y53A L56A) was mixed with a complete Freund's adjuvant, and the resultant mixture was administered subcutaneously to mice (B10.A strain). Two weeks after the administration, whole blood was collected from each mouse, and serum was collected from the whole blood.
Flow cytometry analysis was performed in the same manner as in the item (3) in Example 1B, except that serums of the HEL peptide 48-77 (Y53A L56A)-immunized mice were used in addition to the serums of the HEL protein-immunized mice and that the LK35.2 cells obtained in the item (2) in Example 4 were used instead of the LK35.2 cells obtained in the item (2) in Example 1B. As controls, the flow cytometry analysis was performed in the same manner, except that serums collected from non-immunized mice were used instead of the serums of the HEL protein-immunized mice and the serums of the HEL peptide 48-77 (Y53A L56A)-immunized mice.

T2 sequence (P01910 24-256): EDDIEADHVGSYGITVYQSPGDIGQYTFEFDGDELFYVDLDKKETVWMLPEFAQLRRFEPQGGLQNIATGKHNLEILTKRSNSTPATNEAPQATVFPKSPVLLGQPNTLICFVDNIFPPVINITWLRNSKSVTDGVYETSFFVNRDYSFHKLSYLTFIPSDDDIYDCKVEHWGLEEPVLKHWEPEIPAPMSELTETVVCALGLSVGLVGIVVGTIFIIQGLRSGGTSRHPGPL
T2 sequence (P06343 28-263): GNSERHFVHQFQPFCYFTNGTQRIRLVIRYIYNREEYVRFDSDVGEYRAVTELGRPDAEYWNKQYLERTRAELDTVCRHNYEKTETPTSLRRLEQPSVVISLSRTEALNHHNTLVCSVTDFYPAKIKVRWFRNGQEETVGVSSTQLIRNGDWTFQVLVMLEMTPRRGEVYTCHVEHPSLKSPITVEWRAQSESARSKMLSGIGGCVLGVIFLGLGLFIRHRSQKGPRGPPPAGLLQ
T1 sequence (P01910 24-256): as the sequence (P01910 24-256) above
T1 sequence (P06343 28-263): as the sequence (P06343 28-263) above

| binding of soluble single-chain TCR to LK35.2 cells pulsed with the antigen [1] | IgG1 binding of serum of peptide-immunized mice to LK35.2 cells pulsed with HEL peptide 41-70 [2] | IgG1 binding of serum of peptide-immunized mice to LK35.2 cells pulsed with HEL peptide 48-61 [2] | binding of soluble single-chain TCR to LK35.2 cells pulsed with HEL protein after reaction with serums of mice immunized with the substance [3] | Sequence |
| --- | --- | --- | --- | --- |
| observed | not observed | not observed | observed | DGSTDYGILQINSR (Gallus gallus domesticus) [HEL peptide 48-61, reference compound] |
| not observed | observed | not observed | not observed | QATNRNTDGSTDYGILQINSRWWCNDGRTP (Gallus gallus domesticus) [HEL peptide 41-70] |
